Substitutions are numbered along the chain they refer to. Names may count otherwise. Values belong to the binder of their own block, whether it stands above or below them.
Target: T1, β-ketoacyl-ACP-synthase I (FabB) (E. coli, UniProt P0A953 1-406)
T1 sequence: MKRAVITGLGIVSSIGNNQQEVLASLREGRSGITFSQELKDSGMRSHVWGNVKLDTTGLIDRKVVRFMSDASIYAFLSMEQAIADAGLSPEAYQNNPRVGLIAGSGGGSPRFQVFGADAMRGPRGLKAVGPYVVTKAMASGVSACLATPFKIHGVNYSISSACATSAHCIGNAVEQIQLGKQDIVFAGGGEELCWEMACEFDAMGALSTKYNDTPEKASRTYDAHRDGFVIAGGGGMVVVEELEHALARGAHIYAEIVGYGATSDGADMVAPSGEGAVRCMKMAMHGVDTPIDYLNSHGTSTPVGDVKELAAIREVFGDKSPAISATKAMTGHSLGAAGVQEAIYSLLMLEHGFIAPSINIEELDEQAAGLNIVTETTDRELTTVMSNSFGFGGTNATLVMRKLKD
Assay: NMR titration

- Kd: 37.6 µM
B1: wt C8-AcpP (octanoyl-AcpP) (natural protein, E. coli)
chain: MSTIEERVKKIIGEQLGVKQEEVTNNASFVEDLGADSLDTVELVMALEEEFDTEIPDEEAEKITTVQAAIDYINGHQA
modifications: amide-linked octanoyl (C8) pantetheine probe on the phosphopantetheine serine (S36); 15N, 2H labelled

- Kd: 167 µM
B2: D38A C8-AcpP (natural protein, E. coli)
chain: B1 chain with D39A
modifications: amide-linked octanoyl (C8) pantetheine probe on the phosphopantetheine serine (S36); 15N, 2H labelled

Reference: article PMC7323458 (Nature chemical biology, 2019)
